Results from the supplement of paper PMC12764529.
± gives the half width of the 95% confidence interval.

Key:
[1] = folding stability dG unfold from trypsin proteolysis; higher = more stable
Method in brief: (§1)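 Only designs with AlphaFold2 dimer inter-PAE above 15 were retained; each was a mini-protein under 80 residues with no cysteine, in a PA-tagged cDNA display construct. After digestion with trypsin and chymotrypsin and sequencing, K50 was inferred by Bayesian fitting of counts, and unfolding free energy was derived per protease or combined against a sequence-predicted unfolded-state K50 and a shared folded-state K50.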

[2] = folding stability dG unfold from chymotrypsin proteolysis; higher = more stable
Method in brief: as §1

[3] = folding stability dG unfold (combined trypsin and chymotrypsin); higher = more stable
Method in brief: as §1

Sequence | folding stability dG unfold [1] | folding stability dG unfold [2] | folding stability dG unfold [3]
SAGGSAGMIEVEIRPTPEGGYEVLVKFYGPGGVEVEEKKYRFGSEEEAKKFLEELAKKNGYSVKIRSAGGSA [r15_242_JUSTAS] | 2.11 ± 0.056 kcal/mol | 3.74 ± 0.027 kcal/mol | 3.3 ± 0.067 kcal/mol
SAGGSAGMMKVTTTPVSADTVRVTVTVPGGPFTVTVTQNGVPLLTRTVPADATLTITLPPNATVVGSAGGSA [r15_581_JUSTAS] | 1.91 ± 0.098 kcal/mol | 1.94 ± 0.078 kcal/mol | 1.94 ± 0.14 kcal/mol
SAGGSAGMMPTKITVTLTLPPDAPDVEAVAERLAAELGVEVSNAEVLEVRRLPDGSREVVIELTLLSAGGSA [r15_654_JUSTAS] | 4.2 ± 0.18 kcal/mol | 4.18 ± 0.094 kcal/mol | 4.17 ± 0.1 kcal/mol
SAGGSAGMNSEITLTIPVPHPRDEEGRVLPLSPEAIEKELKEKGYNVKIKEVKTSPSTITVTLKIISAGGSA [r15_225_JUSTAS] | 0.864 ± 0.053 kcal/mol | 1 ± 0.082 kcal/mol | 0.957 ± 0.072 kcal/mol
SAGGSAGMPSVPVERTVTVTVVDAEGNLVGTVTLTLTFPGGVSEEEREAAIAAAIEAAVPPAGVVSSAGGSA [r15_310_JUSTAS] | 2.56 ± 0.077 kcal/mol | 2.26 ± 0.059 kcal/mol | 2.41 ± 0.076 kcal/mol
SAGGSAGMSTVTVPLTVELVDPNNGNLKKVIERPLTVPAELSLDEVKEIVREEAKKEGLTIAKILLSAGGSA [r15_195_JUSTAS] | -0.122 ± 0.21 kcal/mol | -0.0556 ± 0.092 kcal/mol | 0.00724 ± 0.13 kcal/mol
SAGGSAGMVLVRTPDGEVLLLPFTSPEEAEEALERLTGGRLVSVRLEGTPGDRLLLVAEVERPPGGSAGGSA [r15_447_TrMRF] | 1.88 ± 0.045 kcal/mol | 2.16 ± 0.059 kcal/mol | 2.06 ± 0.11 kcal/mol
SAGGSAGMVVEVREFEIEPDEDKKIKATLERYETPEGPRYVLTIEDPSKNEKKSYPLEPGVDFKKLSAGGSA [r15_75_JUSTAS] | -0.0245 ± 0.26 kcal/mol | 0.681 ± 0.14 kcal/mol | 0.488 ± 0.2 kcal/mol
SAGGSAGPLPNEKVEVTLTIPLNVLVLDEDGEPLTPEEIARRVRELFSDVSVTLEPGDRLVITLTESAGGSA [r15_645_TrMRF] | 2.006 ± 0.015 kcal/mol | 1.7 ± 0.022 kcal/mol | 1.85 ± 0.049 kcal/mol
SAGGSAGRSRPLRLRFENPENGLRTEVELRVFEIGDYRVILLRERTYHPDTPGLSERDLLILLPPESAGGSA [r15_960_TrMRF] | 3.03 ± 0.058 kcal/mol | 3.508 ± 0.023 kcal/mol | 3.35 ± 0.1 kcal/mol
SAGGSAGSMSEIEGLTVLEEREEPDPATGTTVPTLVVRDPEKGELYVITATTDPATGKPTYSFDLVSAGGSA [r15_170_JUSTAS] | 0.871 ± 0.03 kcal/mol | 0.0106 ± 0.072 kcal/mol | 0.595 ± 0.047 kcal/mol
SAGGSAGSYLVRVRIRRPEDGKELADAVFEVPPDEPVTAEAILKELGIPPEEAKNIEIEVEVFELGSAGGSA [r15_665_TrMRF] | 2.26 ± 0.049 kcal/mol | 3.05 ± 0.031 kcal/mol | 2.75 ± 0.061 kcal/mol
SAGGSAGVSTSKGSSVTTLKIDYKDDVVIKYSYNPSTGTVYTTVIDPETGNPVTVETYSVSPDVPLSAGGSA [r15_425_JUSTAS] | 0.649 ± 0.014 kcal/mol | 1.26 ± 0.084 kcal/mol | 1.02 ± 0.037 kcal/mol
SAGGSAIIVIEIEMGGKPVPIMIPIPPNMPPEDAREEIKELAKQEVRDPDGKPVRVKIEVIPPPPESAGGSA [r15_246_TrROS] | 0.163 ± 0.059 kcal/mol | 0.945 ± 0.031 kcal/mol | 0.626 ± 0.11 kcal/mol
SAGGSAIKVSTSPSDVSVSKVPLPNGETLTIEVSSNGETTVTKTSPTPGTPTTTTVPGASVEELLESAGGSA [r15_406_JUSTAS] | 0.331 ± 0.034 kcal/mol | 0.974 ± 0.02 kcal/mol | 0.762 ± 0.031 kcal/mol
SAGGSAIPGMPIKEIARALQDKFPPGKPPQIKIRNKNGETKTFEPNKTIDDIPMDGVVEIEIEFRPSAGGSA [r15_50_TrROS] | -0.52 ± 0.62 kcal/mol | 0.0124 ± 0.075 kcal/mol | 0.0509 ± 0.19 kcal/mol
SAGGSAITIEVTMNPNGYMGIRLRDPGNGEEIQIPFPMEPGQNPEDVRNWAREIVDELKKDGWRIYSAGGSA [r15_1022_TrROS] | 1.28 ± 0.019 kcal/mol | 1.76 ± 0.11 kcal/mol | 1.59 ± 0.038 kcal/mol
SAGGSAKDEKVVVIVRREVRLRSRPKVDLGEGNPRVEFESSVEVRVPFLVLPEDDPVARELRELEGSAGGSA [r15_470_TrMRF] | -0.46 ± 0.21 kcal/mol | -0.255 ± 0.24 kcal/mol | -0.26 ± 0.1 kcal/mol
SAGGSAKELIIKIKIKVKVNGKTYEIEIEIKAESIEEAIEAIKKKLEEEGLEIEIVEIEIIPKEELSAGGSA [r15_165_TrROS_Hall] | 3 ± 0.086 kcal/mol | 3.08 ± 0.081 kcal/mol | 2.99 ± 0.1 kcal/mol
SAGGSAKEWVWVISIKYRYPNGEPLAPIPIMIPPDDPEIDIDEIADEIARKHGLDEIEVNIHPIPVSAGGSA [r15_333_TrROS] | 1.59 ± 0.052 kcal/mol | 2.03 ± 0.12 kcal/mol | 1.9 ± 0.14 kcal/mol
SAGGSAKFKLEATPLEDGTLIIPIEIEVTVEKPFPDPNGIPKIKPVKKKFRFLIIKDGDEIKIFLGSAGGSA [r15_883_TrMRF] | 1.59 ± 0.089 kcal/mol | 2.66 ± 0.097 kcal/mol | 2.31 ± 0.23 kcal/mol

Sequence | folding stability dG unfold [1] | folding stability dG unfold [2] | folding stability dG unfold [3]
SAGGSAKIDIEVDPEDGYIRIKLEVQHNDEPVKATMWYPLPDDGMFIRIRFDMPNGKIEEIETIPPSAGGSA [r2_331_TrROS] | 2.69 ± 0.14 kcal/mol | 4.07 ± 0.12 kcal/mol | 3.91 ± 0.27 kcal/mol
SAGGSAKILEEALEALKKAKPGEEVEIEIEIEVNGKKYRIKVKVTYDEETGKITIEIVEIEELPEESAGGSA [r15_724_TrROS_Hall] | 3.23 ± 0.14 kcal/mol | 4.11 ± 0.14 kcal/mol | 3.8 ± 0.14 kcal/mol
SAGGSAKITPGEEINFMFYNPENGQPFMVRIRIEKITVKRKPKDGKRKVEYKIKIEMSPGMKEITISAGGSA [r15_248_TrROS] | 2.26 ± 0.15 kcal/mol | 3.32 ± 0.11 kcal/mol | 3.23 ± 0.3 kcal/mol
SAGGSAKIVIKPDGTIEVEVNGKTFTFPPGAEIEIEEKDGELVLRIRLFNKDGKEVEEFEVTVRIESAGGSA [r15_424_TrROS_Hall] | 4.36 ± 0.19 kcal/mol | 5.51 ± 0.18 kcal/mol | 5.48 ± 0.18 kcal/mol
SAGGSAKKKEKKVEKKVITIEVEPGVKTPEEMLEAIRKLKEEYPDTKIIIKASDEQKEALKRLLKESAGGSA [r15_89_TrROS_Hall] | 0.669 ± 0.16 kcal/mol | 0.879 ± 0.14 kcal/mol | 0.767 ± 0.3 kcal/mol
SAGGSAKKKEVKELTLVIKVKTEEEALKAAEELIRKLLPPDAEIVEVKVEKVKPGEVYITVKVRLKSAGGSA [r15_183_TrROS_Hall] | 2.36 ± 0.12 kcal/mol | 3.99 ± 0.14 kcal/mol | 3.67 ± 0.18 kcal/mol
SAGGSAKKKKGKKKKKIKKIKIKLKLPPGAEIVKIDKEKGVIYIRNKKTNKIYKIDLKTGKIVEIPSAGGSA [r15_452_TrROS_Hall] | 1.86 ± 0.17 kcal/mol | 3.66 ± 0.26 kcal/mol | 3.27 ± 0.39 kcal/mol
SAGGSAKKKKKKKKKKKKKKEKKEVVIVIKAKSKEEAEKAVKKLLEELQKKYNIPLPKNVKVIILPSAGGSA [r15_496_TrROS_Hall] | 3.33 ± 0.11 kcal/mol | 4.34 ± 0.24 kcal/mol | 3.65 ± 0.37 kcal/mol
SAGGSAKKKKKKKVKKVITIPVGGYKIEITYNKKTKKITVKVYKKNKNGKLLSEEEVKKLVKELLSSAGGSA [r15_735_TrROS_Hall] | 1.73 ± 0.1 kcal/mol | 3.4 ± 0.2 kcal/mol | 2.58 ± 0.53 kcal/mol
SAGGSAKKKKTLKITLIIKVKTKEEAEKLAEELAEKLKKLLPEGAKIKVKVTVNKETGYVTVEIELSAGGSA [r15_981_TrROS_Hall] | 2.88 ± 0.16 kcal/mol | 3.64 ± 0.14 kcal/mol | 3.38 ± 0.15 kcal/mol
SAGGSAKKPKPVKYNVVITLKDGKTITLTLPFGSLEKAKEFIEKNFPDAIVTYNPKTGNVTVYLPVSAGGSA [r15_313_TrMRF] | 1.87 ± 0.035 kcal/mol | 3.543 ± 0.03 kcal/mol | 3.16 ± 0.12 kcal/mol
SAGGSAKKTIKITIEVDGKTIEITKITVNENGEVTIEVKITNKNGKETKTIKITMTVEELKALLKSSAGGSA [r15_56_TrROS_Hall] | 1.63 ± 0.042 kcal/mol | 2.55 ± 0.081 kcal/mol | 2.18 ± 0.095 kcal/mol
SAGGSAKKVIVIEVKPGEKITITINGKKVEIVEVKPEGETFLIRNKDTGEIYKITVVDGKVVIEKLSAGGSA [r15_235_TrROS_Hall] | 2.43 ± 0.09 kcal/mol | 4.28 ± 0.076 kcal/mol | 3.74 ± 0.22 kcal/mol
SAGGSAKKVRIEIERNADGTLRITVTLPDGTKKEITVDKPGMTLEEIAKKLGLPEGAEITEIERVPSAGGSA [r15_167_TrROS_Hall] | 2.97 ± 0.067 kcal/mol | 2.71 ± 0.035 kcal/mol | 2.83 ± 0.075 kcal/mol
SAGGSAKKVVLLTIPPSANLPPNSKLVVKFPNGKEKTYKFNDKPVVILLVTDNNGNFSFGVSVEDKSAGGSA [r15_992_TrMRF] | 1.87 ± 0.063 kcal/mol | 3.44 ± 0.17 kcal/mol | 2.68 ± 0.3 kcal/mol
SAGGSAKLIVADVSPLPDGGFAVNVTFVGENGEPVAVKPFYAGSPEELLAALKKFAEENGYEVVVASAGGSA [r15_242_TrMRF] | 3.6 ± 0.12 kcal/mol | 4.57 ± 0.06 kcal/mol | 4.43 ± 0.11 kcal/mol
SAGGSAKLNITKILSVEFSEDGTIRIKVENENGELYELEIKVKVIPPPEKPEIDPKYLTPEDLEKYSAGGSA [r15_41_TrMRF] | 1.43 ± 0.029 kcal/mol | 1.61 ± 0.11 kcal/mol | 1.6 ± 0.12 kcal/mol
SAGGSAKMKKVKITLYAKVKSLEEAKEIAEEIKKSFPSIEKVEVKTEPLEDGSLLVKVDAIFYVPESAGGSA [r15_726_TrMRF] | 2.66 ± 0.072 kcal/mol | 4.17 ± 0.11 kcal/mol | 3.7 ± 0.16 kcal/mol
SAGGSAKNEYITVNITIIVYNPEDGKIEKIINLPIKVPKNLTKEQVINLAKKLLEEKGYEIAEIKGSAGGSA [r15_195_TrMRF] | 2.22 ± 0.12 kcal/mol | 3.24 ± 0.13 kcal/mol | 2.85 ± 0.2 kcal/mol
SAGGSAKPDLVRTGPLLLPTAVVLPSVHFADPDVSVSLFRTPNGPPYLALAFIDPETGEPHIVLFPSAGGSA [r15_84_TrMRF] | 0.934 ± 0.036 kcal/mol | 1.71 ± 0.07 kcal/mol | 1.44 ± 0.09 kcal/mol
